# In US20240425867A1, “NUCLEIC ACID-BASED ASSEMBLY AND USES THEREOF” (Rheinische Friedrich-Wilhelms-Universität Bonn, priority 2016, published 2024):
# “And” between values parts separate entries of the source, which are not always exact repeats. Equal entries are not always repeated.
# What was measured:
# [1] = TEM size of trCLN3-L4 nanoconstructs; format: physicochemical; details: negative stain electron microscopy
# Protocol: The size and structure of the trCLN3-L4 nanoconstructs were analyzed by negative stain electron microscopy. Samples were prepared using negative staining. In brief, carbon coated grids (Quantifoil Micro Tools GmbH, Jena, Germany, 200 mesh) were glow discharged to render the surface hydrophilic prior to applying samples. 10 μL of an aqueous solution of trCLN3-L4 were applied to the grid. Afterwards excess solution was carefully blotted off using filter paper followed by 3 times washing with ddH2O. In the final step, grids were stained with negative staining reagent by placing them (plastic side down) on a 10 μL drop of freshly prepared 2% […] uranyl formiate aqueous staining solution. TEM micrographs were recorded using a JEOL JEM 2200 FS electron microscope (JEOL, Japan) operated at 200 kV. The size of the micelles measured on the TEM images could typically be observed in a range between 20 and 25 nm.
# [2] = Serum stability in PBS-buffered fetal calf serum (PAGE of 32P-labeled aptamer); format: in vitro ADME; details: 10% PBS-buffered FCS, 37° C., 0 to 72 h
# Protocol: (§1) Serum stabilities of trCLN3, its two point mutant non-binding variant trCLN3.mut and their corresponding lipid-functionalized derivatives trCLN3-L4 and trCLN3.mut-L4 were investigated in fetal calf serum (FCS) and human blood serum. For this purpose, the aptamer motifs were labeled at their 5′-end with ^32P to form radiolabeled oligonucleotides. The degradation tests of all the aptamer motifs were performed for 60-72 h at 37°° C. 6 pmol (12 μl of 0.5 μM) of the radio-labeled aptamer (5′-end-labeled with γ-^32P) was incubated in a volume of 300 μl freshly thawed PBS-buffered FCS or human blood serum (270 μl serum+30 μl 10×PBS). For each measurement, 10 μl of the samples were removed, mixed with 90 μl of gel loading buffer (80% formamide+5 mM EDTA+0.01% SDS) and subsequently stored at −20° C. Aliquots of samples were taken after indicated time intervals of 0, 0.3, 1.5, 3, 6, 24, 48, 60 and 72h respectively. The serum stability of the aptamer in FCS or in HBS at different time intervals were analyzed on a denaturing PAGE by loading 10 μl of each sample onto a 10% TAE-Urea gel and running the gels for 90 minutes at 350 V. Gels were wrapped in clingfilm and exposed to a phosphorimager screen in a closed cassette over a period of 12 h and finally the residual intact aptamer bands were analyzed by scanning the screen in a phosphorimage-scanner (FujiFilm FLA 3000). Intensities of the residual intact aptamer bands were calculated applying AIDA image analyzer software program. Serums half-lives of the selected aptamers were determined by using a half-life curve-fitting data analysis program (GraphPad Prism).
# [3] = Serum stability in PBS-buffered human blood serum (PAGE of 32P-labeled aptamer); format: in vitro ADME; details: 10% PBS-buffered HBS, 37° C., 0 to 72 h
# Protocol: as §1
# [4] = Critical micelle concentration via FRET (6-Fam/Atto647N-labeled motif 3); format: physicochemical; details: room temperature
# Protocol: The critical micelle concentration (CMC) value of the trCLN3-L4 aggregates was determined by intermolecular Förster resonance energy transfer (FRET) experiments using a FRET pair of 6-Fam and Atto647N both attached to the 5′-end of the trCLN3-L4 motif 3. The FRET labels were attached at the 5′-end in immediate proximity to the lipid-modifications to ensure that intermolecular FRET effects report the formation of micellar nanoconstructs at a concentration above the critical micelle concentration.
# In the FRET experiment, a series of nanoconstructs was self-assembled by mixing 6-Fam- and Atto647N-labeled motif 3 in 1:1 ratios in a concentration range between 0.035-15 μM (Table 2). […] The mixtures were transferred into a 384-well plate and the FRET effect was monitored at room temperature by using an excitation wave length of λex=480 nm and an emission wavelength of λem=669 nm using an EnSpire® Multimode Plate Reader (PerkinElmer).
# The intensity signals were collected for both FRET channels at λem=669 nm for the acceptor channel and that of donor channel at λem=520 nm. […] The CMC value was determined from the intersection of the lower horizontal asymptote of the sigmoidal curve with the tangent at the inflection point corresponding to the minimum trCLN3-L4 concentration required for formation of stable micelles in aqueous medium. […]
# cMet = molecular target: T1, cMet (Homo sapiens, UniProt P08581); assay: Competitive filter-binding assay against γ-32P-labeled trCLN3; details: competition with γ-32P-trCLN3, cMet ~50 nM, competitor 1 μM-25 pM, 37° C.
# T1 construct: cMet-Fc, which represents the ectodomain of cMet fused to the Fc domain of human IgG1 was purchased from R&D Systems; purchased R&D Systems
# T1 sequence (P08581 25-932 limits assumed): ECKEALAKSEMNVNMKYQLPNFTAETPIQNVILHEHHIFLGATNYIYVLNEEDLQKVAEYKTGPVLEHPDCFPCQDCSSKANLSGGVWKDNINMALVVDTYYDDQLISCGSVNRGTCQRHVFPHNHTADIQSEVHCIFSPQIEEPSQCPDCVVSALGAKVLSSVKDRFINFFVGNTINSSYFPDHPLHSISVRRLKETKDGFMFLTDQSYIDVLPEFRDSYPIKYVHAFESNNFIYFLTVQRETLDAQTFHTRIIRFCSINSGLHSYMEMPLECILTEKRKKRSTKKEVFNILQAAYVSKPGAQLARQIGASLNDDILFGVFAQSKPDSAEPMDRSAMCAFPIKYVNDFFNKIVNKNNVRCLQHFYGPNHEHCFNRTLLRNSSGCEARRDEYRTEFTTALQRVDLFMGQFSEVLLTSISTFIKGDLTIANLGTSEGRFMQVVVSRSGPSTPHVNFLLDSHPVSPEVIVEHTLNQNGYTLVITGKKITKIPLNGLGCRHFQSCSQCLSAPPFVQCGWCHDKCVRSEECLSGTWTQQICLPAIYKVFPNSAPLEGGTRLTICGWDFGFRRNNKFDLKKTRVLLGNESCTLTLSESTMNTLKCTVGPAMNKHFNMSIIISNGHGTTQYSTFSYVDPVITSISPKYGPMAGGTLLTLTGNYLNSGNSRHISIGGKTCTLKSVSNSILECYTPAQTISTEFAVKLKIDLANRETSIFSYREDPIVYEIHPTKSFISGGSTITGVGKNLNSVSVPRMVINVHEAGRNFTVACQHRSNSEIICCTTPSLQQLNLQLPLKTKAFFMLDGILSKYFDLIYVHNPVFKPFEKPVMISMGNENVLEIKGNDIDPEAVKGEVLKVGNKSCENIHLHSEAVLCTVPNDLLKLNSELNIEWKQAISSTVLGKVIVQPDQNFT
# Protocol: To test the effect of lipid-modification on trCLN3 binding properties, we determined IC50 values for each trCLN3 derivative by a competitive filter retention assay in which varying concentrations of unlabeled 5′-(1-dodecynyl)-functionalized trCLN3 aptamers competed with constant amounts of γ-^32P-labeled trCLN3 in binding to cMet. Two control experiments were also performed using unlabeled trCLN3 and its two point mutant variant trCLN3.mut as competitors.
# First, the trCLN3 motif was 5′-end-labeled with γ-^32P ATP using T4 polynucleotide kinase. An aliquot of 20 μL solution containing 50 pmol trCLN3. 6.7 pmol γ-^32P ATP and 20 U T4 polynucleotide kinase in 1× polynucleotide kinase buffer (New England Biolabs) was incubated at 37° C. for 45 min. followed by removal of unreacted γ-^32P ATP using an Illustra G-25 microspin column (GE Healthcare. München, Germany). The purity of the radiolabeled aptamer was confirmed using a 10% PAGE-gel.
# 0.25 mg/ml BSA. 2 mM MgCl2 in 1×PBS, pH 7.4. […] Residual radioactivity due to cMet bound labeled aptamers was quantified using Fujifilm Fla-3000 PhosphorImager and AIDA software. The curves were fitted with GraphPadPrism 3.02 plotting non-linear regression curve and the IC50 values have been calculated assuming a competition for single binding site.
substance,measurement,setting,value
"trCLN3-L4: trCLN3 aptamer with four C12-lipid-modified dU residues at the 5′-end; self-assembles into micellar nanoconstructs (TGGATGGTAGCTCGGTCGGGGTGGGTGGGTTGGCAAGTCT; four 5' C12-lipid-modified dU residues, chemistry not fully specified)",size measured by TEM,[1],25 nm
same,serum half-life (t1/2),[2],no significant degradation even up to 72 h
same,serum half-life (t1/2),[3],no significant degradation even up to 72 h
same,critical micelle concentration (CMC),"[4]; FRET, aqueous medium",300 nM and ~0.005 mg/ml
same,CMC values,[4]; both methods (FRET and pyrene fluorescence),300 to 350 nM
same,IC50,cMet,43 nM
